Legend:
[1] = tested on: T1, phosphoserine substrate peptide RRApSVA
T1 sequence: RRASVA

[2] = tested on: T2, phosphotyrosine substrate peptide ENDpYINASL
T2 sequence: ENDYINASL

[3] = biological target: histone γH2A.X^pY142, endogenous in primary murine fibroblast cultures (UniProt P27661)

Substance | serine phosphatase activity (dephosphorylation assay) [1] | activity to dephosphorylate peptide ENDpYINASL [2] | γH2A.X^pY142 foci per nucleus after NCS exposure [3]
EYA1 isoform C (human splice variant EYA1C, exon 10 skipped) | dephosphorylation assays using the synthetic serine phosphatase substrate RRApSVA demonstrated superior serine phosphatase activity |  | 
mutant EYA1C to which exon 10 had been added (EYA1C::e10) |  | overexpression of EYA1C::e10 phenocopied dephosphorylating efficacy and fibroblast accumulation of EYA1A | EYA1C containing exon 10 (EYA1C::e10) phenocopied EYA1A with regard to premature γH2A.X^pY142 dephosphorylation

— patent publication US20230024933
